Laboratory results: the supplement of paper PMC7125110
± gives the standard error. Variants at the floor of the assay were thinned out.

B1: glmS ribozyme (parent)
chain: AUAAAAGCGCCAGAACUACAGAAAUGUAGUUGACGAGGAGGAGGUUUAUCGAAUUUUCGGCGGAUGCCUCCAAA

Experiments:
Conditions in all cases: with glucosamine-6-phosphate
[1] = variants of: B1; experiment: self-cleavage kobs at 40 uM GlcN6P; higher = faster cleavage; RNA array
Method in brief: (§1)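 Glucosamine-6-phosphate, from 40 μM to 10 mM in HEPES/KCl/Mg(OAc)2 buffer, was flowed over sequenced MiSeq chips carrying barcoded ribozyme variants transcribed in situ by E. coli RNA polymerase. A hybridised Cy3 probe tracked the variants at 37 °C as tiles were imaged over ~14 h. kobs, kcat and KM were obtained by fitting normalised per-tile medians to exponential decays and then applying weighted Michaelis–Menten fits across concentrations.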

[2] = variants of: B1; experiment: self-cleavage kobs at 10000 uM GlcN6P; higher = faster cleavage; RNA array
Method in brief: as §1

[3] = variants of: B1; experiment: self-cleavage kobs at 640 uM GlcN6P; higher = faster cleavage; RNA array
Method in brief: as §1

[4] = variants of: B1; experiment: self-cleavage kobs at 160 uM GlcN6P; higher = faster cleavage; RNA array
Method in brief: as §1

[5] = variants of: B1; experiment: self-cleavage kobs at 2500 uM GlcN6P; higher = faster cleavage; RNA array
Method in brief: as §1

Variant	self-cleavage kobs at 40 uM GlcN6P [1] [s⁻¹]	self-cleavage kobs at 10000 uM GlcN6P [2] [s⁻¹]	self-cleavage kobs at 640 uM GlcN6P [3] [s⁻¹]	self-cleavage kobs at 160 uM GlcN6P [4] [s⁻¹]	self-cleavage kobs at 2500 uM GlcN6P [5] [s⁻¹]
C34U G59C C71G	< 1e-05	< 1e-05			
A12C G32A A48G	< 1e-05				
A33C G63U G66U	< 1e-05	< 1e-05	< 1e-05		
G37U A39G A42U C70U	< 1e-05				
C16U U55A C67A	0.000154 ± 5.7e-05	0.00183 ± 0.00074			
C11G A42G	< 1e-05		< 1e-05	< 1e-05	
U30G C34A G51U A64U	< 1e-05				
A15G A33G G41C	< 1e-05	< 1e-05			
A12G G59A	< 1e-05	2.34e-05 ± 1.1e-05		< 1e-05	
G41U U49C C61G	< 1e-05	< 1e-05			
A36C G37A G59C C71U	< 1e-05	< 1e-05			< 1e-05
A33G A52U	< 1e-05	< 1e-05	< 1e-05		
G7A C58G	< 1e-05		< 1e-05	< 1e-05	
C10A G62C	< 1e-05		< 1e-05	< 1e-05	
G29A G38A A39U	< 1e-05	< 1e-05	< 1e-05		
G7C G9C A15U	< 1e-05	< 1e-05			
C58A G63U	< 1e-05		< 1e-05	< 1e-05	< 1e-05
U31C G44U U56C	< 1e-05				
A15U G32A A42C U54C U56G G63A	< 1e-05				
G43C G51U	< 1e-05	< 1e-05			
G43U G60C	< 1e-05	< 1e-05	< 1e-05	< 1e-05	
A52C U55C	< 1e-05			< 1e-05	
U47A C50U	< 1e-05	5.52e-05 ± 1.2e-05			
A12U A42G C50U C71G	< 1e-05	< 1e-05			
A36U A39G G51A A53U	< 1e-05	< 1e-05	< 1e-05		< 1e-05
G13A C67A C71A	< 1e-05				
U46C U47C C58G	< 1e-05		< 1e-05		

Variant	self-cleavage kobs at 40 uM GlcN6P [1] [s⁻¹]	self-cleavage kobs at 10000 uM GlcN6P [2] [s⁻¹]	self-cleavage kobs at 640 uM GlcN6P [3] [s⁻¹]	self-cleavage kobs at 160 uM GlcN6P [4] [s⁻¹]	self-cleavage kobs at 2500 uM GlcN6P [5] [s⁻¹]
A42U U46C G51C C61A	< 1e-05				
C11U A14C G38A C61G	< 1e-05				
A53U C61A	< 1e-05	< 1e-05			
C10G G51C	< 1e-05	< 1e-05	< 1e-05	< 1e-05	
U54G U55A	0.00109 ± 0.00018	0.0495 ± 0.015			
G7A U30A	< 1e-05			< 1e-05	< 1e-05
C8G U31C A33U U46C C67A	< 1e-05	< 1e-05			
G9A G59U A64U U65C	< 1e-05	< 1e-05			
G9C G59U	< 1e-05		< 1e-05	< 1e-05	< 1e-05
G32A G40U A42U G44C C67G	< 1e-05	< 1e-05			
A6U U55G G62C C70A	< 1e-05				
U55C G63U U69A	< 1e-05	< 1e-05	< 1e-05		
A14U A15G A33U A48U C50U G60C	< 1e-05				
G32U A48U C58U C68U	< 1e-05				
C34G U57G	< 1e-05	< 1e-05	< 1e-05	< 1e-05	
U30G C61U	< 1e-05		< 1e-05		< 1e-05
A42U U69G	0.000489 ± 5.4e-05	0.00738 ± 0.0015	0.00192 ± 0.00026	0.000822 ± 0.00011	0.00369 ± 0.00061
A6C G13U C34G G60C	< 1e-05				
G37A G44U U65G	< 1e-05	< 1e-05	< 1e-05	< 1e-05	
C11G G59A C68A	< 1e-05	< 1e-05			
U31C G35A G37U	< 1e-05				
A14C U54A	0.00014 ± 2.7e-05	0.00985 ± 0.0024	0.00123 ± 0.00021		0.0023 ± 0.0005
A6G G44U C58U G63U	< 1e-05				< 1e-05
A6U G44C	< 1e-05		< 1e-05	< 1e-05	< 1e-05
G40U G59C	< 1e-05		< 1e-05		
U54G G63C	< 1e-05	< 1e-05	< 1e-05		< 1e-05
A14U U56G	0.000924 ± 0.00012	0.0462 ± 0.0095	0.0066 ± 0.0011	0.00383 ± 0.00078	0.0108 ± 0.0026
